assay: yeast display, Sf9 membrane polyspecificity reagent, FACS + sequencing; frameworks hold sequencing errors
Procedure, shortened: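 Galactose-induced (36–48 hours) yeast carrying a synthetic nanobody display library were exposed to 10% biotinylated, detergent-solubilized Sf9 membrane reagent at 4 °C for 1 hour. FACS followed streptavidin microbead enrichment, using low and high (top ~1%) gates for expression (anti-HA) and reagent binding (streptavidin). Colony PCR, MiSeq 2 × 250 sequencing and CDR-length filtering followed. Labels for polyreactivity reflect the gate of origin.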

Sequence | polyreactivity (PSR sort gate)
QVQLVESGGGLVQAGGSLRLSCAASGGIFKSYAMGWYRQAPGKERELVAAISASGGRTYYADSVKGRFTISRDNAKNTVYLQMNSLKPEDTAVYYCAAKVGYTTALNYWGQGTQVTVSS | high polyreactivity
QVQLVESGGGLVQAGGSLRLSCAASGGIFKYNAMGWYRQSPGKERELVAAIDTSGGSTYYADSVKGRFTISRDNAKNTVYLQMNSLKPEDTAVYYCAAELGLAQYYYWGQGTQVTVSS | low polyreactivity
QVQLVESGGGLVQAGGSLRLSCAASGGIFLVNDMGWYRQAPGKERELVAAITSGGGTYYADSVKGRFTISRDNAKNTVYLQMNSLKPEDTAVYYCARDTYRQIVSNESYGYWGQGTQVTVSS | low polyreactivity
QVQLVESGGGLVQAGGSLRLSCAASGGIFNSNAMGWYRQAPGKEREFVAAITRSGTSTYYADSVKGRFTISRDNAKNSVYLQMNSLKPEDTAVYYWAADYRYRRYRGHVSNLYYWGQGTQVTVSS | low polyreactivity
QVQLVESGGGLVQAGGSLRLSCAASGGIFNTYAMGWYRQAPGKEREFVAAISRRGGGTYYADSVKGRFTISRDNAKNTVYLQMNSLKPEDTAVYYCNADDKRGSRGYGSDHWGQGTQVTVSS | high polyreactivity
QVQLVESGGGLVQAGGSLRLSCAASGGIFPGNAMGWYRQAPGKERELVATISYSGGSTYYADSVKGRFTISRDYAKNTVYLQMNSLKPEDTAVYYCAARGYKPTRSRRTEYGYWGQGTQVTVSS | high polyreactivity
QVQLVESGGGLVQAGGSLRLSCAASGGIFPLYTMGWYRQATGKERELVASNTGSRASTYYADSVKGRFTISRDKAKNTVYLPMNSLNPEDTGVYDCKADVYVYSVTSHYPSYRLDYWGQGTQVTVAS | high polyreactivity
QVQLVESGGGLVQAGGSLRLSCAASGGIFPVNAMGWYRQAPGKERELVAAITWRGGRTYYADSVKGRFTISRDNSKNTVYLQMNSLKPEDTAVYYCAAYKGSSKYDYWGQGTQVTVSS | high polyreactivity
QVQLVESGGGLVQAGGSLRLSCAASGGIFPYYAMGWYRQAPGKERELVADISSGGSTYYADSVKGRFTISRDNAKNTVYFQMNSLKPEDTAVYYCAADAGQYFTYSGDDNHDYWGQGTQVTVSS | low polyreactivity
QVQLVESGGGLVQAGGSLRLSCAASGGIFPYYVMGWYRQAPGNEMELVAAINSGGTTYYADSVKGRFTISRDNAKNTVYLQMNILKPEDTAVYYCAAYYAGFGYNYWGQGTQVTVSS | low polyreactivity
QVQLVESGGGLVQAGGSLRLSCAASGGIFQGYAMGWYRQAPGKERELVAGITSRSGSTYYADSVKGRFTISRDNAKNTVYLQMNSLKPEDTAVYYCAVRVYRSYGYWGQGTQVTVSS | high polyreactivity
QVQLVESGGGLVQAGGSLRLSCAASGGIFRGNAMGWYRQAPGKERELVAAISSSGGSTYYADSVKGRFTISRDNAKNTVYLQMNSLKPEDTAVYYCAATRYSTRFGARGYWGQGTQVTVSS | high polyreactivity
QVQLVESGGGLVQAGGSLRLSCAASGGIFRINAMGWYRQAPGKERELVAAITSSVGSTYYADSVKGRFTISRDNAKNTVYLQMNSLKPEDTAVYYCAAVITRDAIVFSTEYDYWGQGTQVTVSS | low polyreactivity
QVQLVESGGGLVQAGGSLRLSCAASGGIFRPYAMGWYRQSPGKEREMVAAITYNGGSTYYADSVKGRFTISRDNAKNTVYLQMNSLKPEDTGVYYCAARARSSRTYHDDYWGQGTQVTVSS | high polyreactivity
QVQLVESGGGLVQAGGSLRLSCAASGGIFRYYAMGWYRQAPGKERELVAAISKSGGRTYYADSVKGRFTISRDNAKNTVYLQMNSLKPEDTAVYYCNAEYTWHSGYDYWGQGTQVTVSS | low polyreactivity
QVQLVESGGGLVQAGGSLRLSCAASGGIFSFKAMGWYIQAPGKERELVAAITTRGGSTYYADSVKGRFTISRDNAKNTVYLQMNSLKPEDTAVYYCAAEGYEEFNWGQGTQVTVSS | low polyreactivity
QVQLVESGGGLVQAGGSLRLSCAASGGIFSGYAMGWYRQAPGKERELVAAISRRGGSTYYADSVKGRFTISRDNAKNTVYLQMNSLKPEDTAVYYFAKAYPYTCGQVTMYYWGQGTQVTVSS | high polyreactivity
QVQLVESGGGLVQAGGSLRLSCAASGGIFSLYAMGWYRQAPGKEREFVAAISFTGASTYYADSVKGRFTISRDNAKNTVYLQMNSLKPEDTAVYYCAAYWDAEGRRYTRLDYWGQGTQVTLSS | low polyreactivity
QVQLVESGGGLVQAGGSLRLSCAASGGIFSSYVMGWYRQAPGKERELVAAIRWSGSSTYYADSVKGRFTISRDNAKNTVYLQMNSLKPEDTAVYYCAAYRDYGSYGSWGQGTQVTVSS | high polyreactivity
QVQLVESGGGLVQAGGSLRLSCAASGGIFSYNAMGSYRQAPGKERELVATISYSGGSTFYADSVKGRFTISRDNAKNTVYLQMNSLKPEDTAVYYCARPSYTSGYQSYDYWGQGTQVTVSS | low polyreactivity
QVQLVESGGGLVQAGGSLRLSCAASGGIFSYNAMGWSRQAPGKEREWVASITGSGGSTYYADSVKGRFTISRGNAKNTVYLQMNSLKPEDTAVYYCAAQGYWTYWPYLLRLYDYWGQGTQVTVSS | low polyreactivity
QVQLVESGGGLVQAGGSLRLSCAASGGIFSYYAMGWYRQAPGKEREFVAAIDWGGGSTYYADSVKGRFTISRDNAKKTVYLQMNSLKPEDTAVYYCAAEIYPIGWDDYDYWGQGTQVTVSS | low polyreactivity

Sequence | polyreactivity (PSR sort gate)
QVQLVESGGGLVQAGGSLRLSCAASGGIFTRNDMGWYRQAPGKERELVAGISWRGGSTYYADSVKGRFTISRDNAKNTVYLQMNSLKPEDTAVYYCAADLDSDFDYWGQGTQVTVSS | low polyreactivity
QVQLVESGGGLVQAGGSLRLSCAASGGIFVFYGLGWYRQAPGKERELVAAINGNGDDTYYADSVKGRFTISRDNAKNTVYLQMNSLKPEDTAVYYCAAESRGDGDGYWGQGTQVTVSS | low polyreactivity
QVQLVESGGGLVQAGGSLRLSCAASGGIFWFNAMGWYRQAPGKEREFVAAITWRGGSTYYADSVKGRFTISRDNAKNTVYLQMNSLKPEDTAVYYCAATYWWHRSSGWDRVEYWGQGTQVTVSS | high polyreactivity
QVQLVESGGGLVQAGGSLRLSCAASGGIFWHYTMGWYRQAPGKERELVAAITRRGGSTYYADSVKGRFTISRDNAKNSVYLQMTSLKREDTAVYYCAADFLPQSYNWYDYWGQGTQVTVSS | low polyreactivity
QVQLVESGGGLVQAGGSLRLSCAASGGIFWYYAMGWYRQAPGNERELVATISTGGSTKYADSVKGRFTISRDNAKNTVYLQMNSLNPDDTAVYYCNKVFPNLYIYVVRGLIEMDYWGQGTQVTVSS | low polyreactivity
QVQLVESGGGLVQAGGSLRLSCAASGGIFYGYAMGWYRQAPGKERELVASITSDGSTYADSVKGRFTISRDNAKNTVYLQMNSLKPEDTAVYYCNKEILVIVTYDYWGQGTQVTVSS | low polyreactivity
QVQLVESGGGLVQAGGSLRLSCAASGGIFYGYAMGWYRQAPWKERELVAAISSTGGRTYYADSVKGRFTISRDNAKNTVYLQMNSLKPEVTAVYYCAAEDFTRQFEYWGQGTQVTVSS | low polyreactivity
QVQLVESGGGLVQAGGSLRLSCAASGGIFYRNAMGWYRQAPGKERELVAAISSGGGSTYYADSVKGRFTISRDNAKNTVYLQMNSLKPEDTAVYYCARDSYHLYIQPFGYWGQGTQVTVSS | low polyreactivity
QVQLVESGGGLVQAGGSLRLSCAASGGIFYRYAMGWYRQAPGKEREFVASITSSGDRTYYADSVKGRFTISRDNAKNTVYLQMNSLKPEDTAVYYCAAVYTAAWGGRYHYWGQGTQVTVSS | high polyreactivity
QVQLVESGGGLVQAGGSLRLSCAASGGIIGWNAMGWYRQAPGKERELVATISWSGGSTYYADSVKGRFTISRDNAKNTVYLQMNSLKPEDTAVYYCAVARSAYWYRPAYDYWGQGTQVTVSS | high polyreactivity
QVQLVESGGGLVQAGGSLRLSCAASGGIILGYAMRWYRQARGKERELVAAISRSGVSTYYADSVKGRFTISRDNAKNTVYLQMNSLKPEDTAVYYCASDYRYASDYWGLGTQVTVSS | low polyreactivity
QVQLVESGGGLVQAGGSLRLSCAASGGILPKNAMGCYRQAPGKQRELVAAISTRGTSTYYADSVKGRFTISRDNAKNTVYLQMNSLKPEDTGVYYCATSRVYIGYDYWGQGTQETVSS | low polyreactivity
QVQLVESGGGLVQAGGSLRLSCAASGGILYHYAMGWYRQAPGIERELVAAIRWSGGSTYYADSVKGRFTISRDNAKNTVYLQMNSLKPEDTAVYYCAADVYYYHVLDFDYWGQGTQVTVSS | low polyreactivity
QVQLVESGGGLVQAGGSLRLSCAASGGILYYYAMGWYRQAPGKERELVAGISVRGGRTNYADSVKGRFTISRDNAKNTVYLQMNSLKPEDTAVYYCAAETLYTSGYGSWGQGTQVTVSS | low polyreactivity
QVQLVESGGGLVQAGGSLRLSCAASGGISAFNSMGWYRQAPGKERELVAAINYRGGTTYYADSVKGRFTISRDNAKNTVYLQMNSLKPEDTAVYYCNKPYYSSTYYYWGQGTQVTVSS | low polyreactivity
QVQLVESGGGLVQAGGSLRLSCAASGGIYDSYAMGWYRQAPGKEGEMVASISWSGGSTYYADSVKGRFTISRDNAKNTVYLQMNSLKPEDTAVYYCAADRAYAGRYWKGYHSALYDYWGEGTQVTVSS | low polyreactivity
QVQLVESGGGLVQAGGSLRLSCAASGGLFWTYAMGWYRQAPGKERELVATITSGGSTNYADSVKGRFTISRDNAKNTVYLQMNSLKPEETAVYYCNADWWWGYGYWGQGTQVTVSS | low polyreactivity
QVQLVESGGGLVQAGGSLRLSCAASGGMLPKNAMGWYRQAPGKVRELVAGISTRGTSTYYADSVKGRFTISRDNAKNTVYLQMNSLKPEDTAVYYCATSRDYIGYDYWGQGTQVTVSS | low polyreactivity
QVQLVESGGGLVQAGGSLRLSCAASGGNFEWNAMGWYRQAPGKERELVAAISNTGGSTSYADSVKGRFTISRDNAKNTVYLQMNSLKTEDTAVYYCNTVNRYEFGYWGQGSQVTVSS | high polyreactivity
QVQLVESGGGLVQAGGSLRLSCAASGGSYVMGWYRQAPGKERELVAAITFSGRTYYADSVKGRFTISRDNAKNTVYLQMNSLKPEDTAGYYCAARERPGFRRPLTGGYDHWGQVTQVTVSS | high polyreactivity
QVQLVESGGGLVQAGGSLRLSCAASGGTFAAYAMGWYRQAPGKERELVAAIDSGGTTKYADSVKGRFTISRDNAKNTVYLQMNSLKPEDTAVYYCAKVTTGFGVETYHGKGNDYWGQGTQVTVSS | low polyreactivity

Source: the nanobody polyreactivity screen of Harvey et al. (2022)
